The source of these data is paper PMC6785124, “Allosteric regulation of a prokaryotic small Ras-like GTPase contributes to cell polarity oscillations in bacterial motility” (PLoS Biology, 2019).

Assay [1] has as its target Myxococcus xanthus Mutual gliding motility A, MxMglA(His6) (Myxococcus xanthus) (UniProt Q1DB04). As to the kind of experiment: fluorescence polarisation; fluorescence anisotropy of 400 nM mant-GppNHp (m-GNP) mixed with 2 μM MxMglA or its mutant, titrated with MxMglB or MxMglB^ΔCt (concentration as MglB dimer); one site-specific binding fit.
Assay [2] has as its target T1, Myxococcus xanthus Mutual gliding motility B, full-length MxMglB(His6) (Myxococcus xanthus), Q1DB03.
T1 chain: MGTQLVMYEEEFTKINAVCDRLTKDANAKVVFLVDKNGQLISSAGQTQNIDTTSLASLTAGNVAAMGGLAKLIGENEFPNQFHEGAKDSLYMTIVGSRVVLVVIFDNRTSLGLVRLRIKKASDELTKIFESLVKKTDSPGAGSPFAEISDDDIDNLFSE
Briefly: crystal structure; MxMglA and MxMglB mixed 1:1 (MglB as monomer), 4 mg/ml each, in A50 buffer with 5 mM MgCl2 and 2 mM GTPγS; PEG 4000 or PEG 3350 with 200 mM ammonium sulphate. The settings on record: remark: other sources report otherwise.

The target of assay [3] is T2, Myxococcus xanthus Mutual gliding motility A, MxMglA(His6) (Myxococcus xanthus, UniProt Q1DB04 1-195).
T2 construct: MglA, small Ras-like GTPase of Myxococcus xanthus; gene mglA amplified from genomic DNA (DSMZ 16526) and cloned into pHis17 between NdeI and BamHI; In the assays it carried m-GDP, m-GNP (mant-GppNHp) or GTPγS; source: E. coli BL21-DE3, purified (HisTrap, Superdex75); not shown: His6, C-terminal, kept
T2 sequence: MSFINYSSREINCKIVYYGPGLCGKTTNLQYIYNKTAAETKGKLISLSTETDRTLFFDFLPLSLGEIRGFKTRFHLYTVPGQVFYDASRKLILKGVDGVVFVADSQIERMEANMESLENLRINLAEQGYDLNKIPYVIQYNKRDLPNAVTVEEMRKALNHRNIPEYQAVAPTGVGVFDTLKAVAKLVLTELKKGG
As to the kind of experiment: fluorescence polarisation; fluorescence anisotropy of 400 nM mant-GDP (m-GDP) mixed with 2 μM MxMglA or its mutant, titrated with MxMglB or MxMglB^ΔCt (concentration as MglB dimer); one site-specific binding fit. As to conditions: both partners purified.

The target in assay [4] is T2, Myxococcus xanthus Mutual gliding …. Briefly: fluorescence polarisation; fluorescence anisotropy of 400 nM mant-GppNHp (m-GNP) mixed with 2 μM MxMglA or its mutant, titrated with MxMglB or MxMglB^ΔCt (concentration as MglB dimer); one site-specific binding fit. The settings on record: both partners purified.
Assay [5] deals with T3, MxMglA^K, MxMglA K181A and K185A double mutant (Myxococcus xanthus, UniProt Q1DB04 1-195, K181A | K185A).
T3 construct: Mutant of m1; source: E. coli BL21-DE3, purified (protocol similar to MxMglA(His6))
T3 sequence: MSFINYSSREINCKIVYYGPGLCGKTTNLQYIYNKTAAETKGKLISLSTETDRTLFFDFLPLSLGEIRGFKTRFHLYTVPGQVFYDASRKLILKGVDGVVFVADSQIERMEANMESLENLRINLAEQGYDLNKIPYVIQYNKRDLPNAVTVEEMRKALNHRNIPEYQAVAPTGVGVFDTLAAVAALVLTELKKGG
The description is as above. The settings on record: both partners purified.

The target in assay [6] is T4, MxMglA^L, MxMglA L64A and I67A double mutant (Myxococcus xanthus, UniProt Q1DB04 1-195, L64A | I67A).
T4 construct: MglA of Myxococcus xanthus with L64A and I67A (β2-β3 loop, interswitch region); Mutant of m1; source: E. coli BL21-DE3, purified (protocol similar to MxMglA(His6))
T4 sequence: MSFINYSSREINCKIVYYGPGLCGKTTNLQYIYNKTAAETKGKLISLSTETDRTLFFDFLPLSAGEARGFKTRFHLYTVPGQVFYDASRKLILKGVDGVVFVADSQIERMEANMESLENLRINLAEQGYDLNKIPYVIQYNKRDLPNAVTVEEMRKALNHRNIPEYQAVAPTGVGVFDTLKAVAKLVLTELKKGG
The assay is described as above. The settings on record: both partners purified.

For assay [7], the target named is T5, MxMglA^Q82L, active site mutant of MxMglA (Myxococcus xanthus, UniProt Q1DB04 1-195, Q82L).
T5 construct: MglA of Myxococcus xanthus with Q82L (active site); Mutant of m1; source: E. coli BL21-DE3, purified (protocol similar to MxMglA(His6))
T5 sequence: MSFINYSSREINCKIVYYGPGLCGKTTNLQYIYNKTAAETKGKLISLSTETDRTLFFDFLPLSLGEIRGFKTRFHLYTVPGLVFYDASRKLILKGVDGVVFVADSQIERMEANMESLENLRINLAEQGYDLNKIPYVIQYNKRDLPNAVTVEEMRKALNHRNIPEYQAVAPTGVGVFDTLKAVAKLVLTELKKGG
Described as above. As to conditions: both partners purified.

Assay [8] concerns the target T2, Myxococcus xanthus Mutual gliding …. As to the kind of experiment: crystal structure; MxMglA and MxMglB mixed 1:1 (MglB as monomer), 4 mg/ml each, in A50 buffer with 5 mM MgCl2 and 2 mM GTPγS; PEG 4000 or PEG 3350 with 200 mM ammonium sulphate. The settings on record: both partners purified.

Consider “MxMglB^ΔCt(His6), truncated MxMglB lacking the C-terminal helix (domain or fragment)”, for which, in assay [1], the Kd is 290 nM.

B1: Myxococcus xanthus Mutual gliding motility B, full-length MxMglB(His6) (natural protein, UniProt Q1DB03 1-159, looked up)
chain: MGTQLVMYEEEFTKINAVCDRLTKDANAKVVFLVDKNGQLISSAGQTQNIDTTSLASLTAGNVAAMGGLAKLIGENEFPNQFHEGAKDSLYMTIVGSRVVLVVIFDNRTSLGLVRLRIKKASDELTKIFESLVKKTDSPGAGSPFAEISDDDIDNLFSE
notes: Rbl/LC7 core residues 10-131, Ct-helix residues 147-157; also called MglB1 and MglB2 (the two protomers in the crystal); source: E. coli BL21-AI, purified (HisTrap, Superdex75); not shown: His6, C-terminal, kept
In the case of B1, the stoichiometry N in assay [2] was found to be 2. In addition, the Kd was 120 ± 30 nM in assay [3] and 100 ± 40 nM in assay [4]. Also, the binding result in assay [5], in assay [6] and in assay [7] was “binds” in each case.

B2: selenomethionine-labeled MxMglB^I148M (natural protein, Myxococcus xanthus)
chain: MGTQLVMYEEEFTKINAVCDRLTKDANAKVVFLVDKNGQLISSAGQTQNIDTTSLASLTAGNVAAMGGLAKLIGENEFPNQFHEGAKDSLYMTIVGSRVVLVVIFDNRTSLGLVRLRIKKASDELTKIFESLVKKTDSPGAGSPFAEMSDDDIDNLFSE
modifications: selenomethionine-labeled
notes: MglB of Myxococcus xanthus with Ile148 mutated to methionine; construct without histidine tag; Made to confirm the registry of the Ct-helix; Probably a point mutant of full-length MglB
With B2, the binding result in assay [8] is “binds”.

B3: selenomethionine-labeled MxMglB^L156M (natural protein, Myxococcus xanthus)
chain: MGTQLVMYEEEFTKINAVCDRLTKDANAKVVFLVDKNGQLISSAGQTQNIDTTSLASLTAGNVAAMGGLAKLIGENEFPNQFHEGAKDSLYMTIVGSRVVLVVIFDNRTSLGLVRLRIKKASDELTKIFESLVKKTDSPGAGSPFAEISDDDIDNMFSE
modifications: selenomethionine-labeled
notes: MglB of Myxococcus xanthus with Leu156 mutated to methionine; construct without histidine tag; Made to confirm the registry of the Ct-helix; Probably a point mutant of full-length MglB
As to B3, in assay [8], the binding result was “binds”.
